We go through six molecules from PMC10250227 (Nucleic Acids Research, 2023).

For one series, the target named is T1, NEQ395 (Nanoarchaeum equitans, UniProt Q74N22).
T1 sequence (Q74N22 1-393): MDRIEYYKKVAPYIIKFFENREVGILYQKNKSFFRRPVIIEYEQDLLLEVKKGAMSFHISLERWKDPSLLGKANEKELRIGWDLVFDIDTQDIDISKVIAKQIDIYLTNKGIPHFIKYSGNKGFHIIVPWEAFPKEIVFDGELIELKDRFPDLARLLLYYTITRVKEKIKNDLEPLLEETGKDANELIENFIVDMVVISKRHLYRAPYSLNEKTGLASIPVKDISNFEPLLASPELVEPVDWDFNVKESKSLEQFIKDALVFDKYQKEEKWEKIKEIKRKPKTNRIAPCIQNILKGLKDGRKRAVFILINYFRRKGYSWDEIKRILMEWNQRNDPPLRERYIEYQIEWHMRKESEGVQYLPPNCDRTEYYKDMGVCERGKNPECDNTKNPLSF
Briefly: RP-HPLC primase assay with omission of single rNTPs. It counts as biochemical. Conditions: pH 6.5, 70°C.

Series [1] addresses T2, NEQ395 DNA primase (monomeric PriS-PriL) (Nanoarchaeum equitans, UniProt Q74N22 1-393).
T2 sequence: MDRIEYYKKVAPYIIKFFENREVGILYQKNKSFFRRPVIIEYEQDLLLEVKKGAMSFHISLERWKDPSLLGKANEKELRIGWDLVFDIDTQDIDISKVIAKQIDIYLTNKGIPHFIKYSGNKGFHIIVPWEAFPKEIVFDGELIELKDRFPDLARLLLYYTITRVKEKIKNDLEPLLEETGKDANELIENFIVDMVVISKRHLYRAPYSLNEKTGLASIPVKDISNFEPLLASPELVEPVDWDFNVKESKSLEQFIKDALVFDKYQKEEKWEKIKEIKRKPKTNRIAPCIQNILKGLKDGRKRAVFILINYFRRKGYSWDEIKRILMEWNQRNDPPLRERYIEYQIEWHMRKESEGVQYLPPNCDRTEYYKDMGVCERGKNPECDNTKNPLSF
In words: fluorescence anisotropy. (Fluorescence polarisation rises when a labelled molecule tumbles more slowly, as on binding a larger partner.)

Series [2] deals with T2, NEQ395 DNA primase (monomeric PriS-PriL). In words: fluorescence anisotropy. The source holds these as a separate data set.
Series [3] has the same target. In words: fluorescence anisotropy. This is another data set of the same source.

Where two headings read alike, the source gives them in different places.

Consider `Nc1ncnc2c1ncn2[C@@H]1O[C@H](COP(=O)(O)OP(=O)(O)OP(=O)(O)O)[C@@H](O)[C@H]1O` [ATP], for which the “RP-HPLC primase assay with omission of single rNTPs” value at NEQ395 (initiating nucleotide, ssDNA template Fid1-4, Mn2+) was “using an rNTP mix without ATP (the first cognate base needed for synthesis) did not initiate”. Take `Nc1nc2c(ncn2[C@@H]2O[C@H](COP(=O)(O)OP(=O)(O)OP(=O)(O)O)[C@@H](O)[C@H]2O)c(=O)[nH]1` [GTP]: at NEQ395 (elongating nucleotide, ssDNA template Fid2, Mn2+), the “RP-HPLC primase assay with omission of single rNTPs” value is recorded as “In presence of GTP, extension to the full-length primers occurs”.

B1: t18_ds (dsDNA)
DNA 1: TGTAAAACGACGGCCAGT
DNA 2: ACTGGCCGTCGTTTTACA
In the case of B1, the Kd (as a rule, a measure of binding affinity in units of concentration) in series [1] amounted to 650 nM. On the same count and under the same terms, in the case of TGTAAAACGACGGCCAGT (ssDNA) [t18] it was 510 nM.

In the case of CTATACTCA (ssDNA) [t9], the Kd in series [2] was found to be 580 nM; in series [3], 1060 nM. Regarding CTGTGCTCA (ssDNA) [t9-ATA (lacks ATA)], the Kd in series [3] stood at 2870 nM.
